Biological target: Delta-RBD (SARS-CoV-2, UniProt P0DTC2)
Assay: BLI

B1: sACE2_(2).S14-IgG1 (Fc fusion)
chain: QSTIEEQAKYFLDKFNHEAEDLFYQSSLASWNYNTNITEENVQNMNNAGDKWSAFLKEQSTTAQMYPLQEIQNLTVKLQLQALQQNGSSVLSEDKSKRLNTILNTMSTIYSTGKVCNPDNPQECLLLEPGLNEIMANSLDYNERLWAWESWRSEVGKQLRPLYEEYVVLKNEMARANHYEDYGDYWRGDYEVNGVDGYDYSRGQLIEDVEHTFEEIKPLYEHLHAYVRAKLMNAYPSYISPIGCLPAHLLGDMWGRFWTNLYSLTVPFGQKPNIDVTDAMVDQAWDAQRIFKEAEKFFVSVGLPNMTQGFWEYSMLTDPGNVQKAVCHPTAWDLGKGDFRILMCTKVTMDDFLTAHHEMGHIQYDMAYAAQPFLLRNGANEGFHEAVGEIMSLSAATPKHLKSIGLLSPDFQEDNETEINFLLKQALTIVGTLPFTYMLEKWRWMVFKGEIPKDQWMKKWWEMKREIVGVVEPVPHDETYCDPASLFHVSNDYSFIRYYTRTLYQFQFQEALCQAAKHEGPLHKCDISNSTEAGQKLFNMLRLGKSEPWTLALENVVGAKNMNVRPLLNYFEPLFTWLKDQNKNSFVGWSTDWSPYADQSIKVRISLKSALGDKAYEWNDNEMYLFRSSVAYAMRQYFLKVKNQTILFGEEDVRVANLKPRISFNFFVTAPKNVSDIIPRTEVEKAIRMSRSRINDAFRLNDSSLEFLGIQPTLG
Question: With B1 as the binder, how does the koff read?
Answer: The koff was 0.00087 s⁻¹.

Source: paper PMC11342882 (Molecular Therapy. Methods & Clinical Development, 2024)
